Source: patent publication US20230265151A1, “GIP/GLP1 CO-AGONIST COMPOUNDS” (priority 2020, published 2023)

Legend:
Experiment in all cases: cell-based or functional assay
human GIP receptor = target: T1, human GIP receptor (human, UniProt P48546 22-466)
T1 sequence (looked up): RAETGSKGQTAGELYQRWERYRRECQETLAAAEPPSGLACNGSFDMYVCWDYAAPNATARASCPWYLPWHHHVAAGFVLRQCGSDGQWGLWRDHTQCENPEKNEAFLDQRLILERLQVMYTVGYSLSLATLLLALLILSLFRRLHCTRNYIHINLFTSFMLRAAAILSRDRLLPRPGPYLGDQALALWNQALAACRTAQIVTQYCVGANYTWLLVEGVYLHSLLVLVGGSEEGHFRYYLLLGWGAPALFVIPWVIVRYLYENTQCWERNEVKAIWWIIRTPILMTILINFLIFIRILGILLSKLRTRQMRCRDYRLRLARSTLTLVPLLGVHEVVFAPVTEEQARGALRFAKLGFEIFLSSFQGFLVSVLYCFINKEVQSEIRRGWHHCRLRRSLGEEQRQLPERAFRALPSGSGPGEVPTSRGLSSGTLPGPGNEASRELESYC

human GLP-1 receptor = human GLP-1 receptor (human, UniProt P43220 24-463)
human glucagon receptor = human glucagon receptor (human, UniProt P47871 26-477)

Binder | cAMP EC50 (1.0% HSA) (human GIP receptor) [nM] | cAMP Emax (1.0% HSA) (human GIP receptor) [%] | cAMP EC50 (1.0% HSA) (human GLP-1 receptor) [nM] | cAMP EC50 (1.0% HSA) (human glucagon receptor) [nM] | cAMP Emax (1.0% HSA) (human GLP-1 receptor) [%]
YXEGTXTSDXXIXLDXIAQXEFIKXLIKGGPSSGAPPPS (Y-Aib-EGT-αMeF(2F)-TSD-4Pal-Aib-I-αMeL-LD-Orn-IAQ-Aib-EFIK(2-[2-(2-Amino-ethoxy)-ethoxy]-acetyl)2-(γ-Glu)-(11-(4-carboxyphenoxy)undecanoyl)-αMeY-LIK((2-[2-(2-Amino-ethoxy)-ethoxy]-acetyl)2-(γ-Glu)-(11-(4-carboxyphenoxy)undecanoyl)GGPSSGAPPPS-NH2)) [Example 311] | 2.16 | 98.3 | 33.8 | > 9950 | –
YXEGTXTSDXSIXLDXKAQXKFIXXLIEGGPSSGAPPPS (Y-Aib-EGT-αMeF(2F)-TSD-Nle-SI-αMeL-LD-Orn-K((2-[2-(2-Amino-ethoxy)-ethoxy]-acetyl)2-CO-(CH2)12-CO2H)AQ-Aib-K((2-[2-(2-Amino-ethoxy)-ethoxy]-acetyl)2-CO-(CH2)12-CO2H)FI-(D-Glu)-αMeY-LIEGGPSSGAPPPS-NH2) [Example 271] | 0.767 | – | 10.2 | > 9950 | –
YXEGTXTSDXSIXLDXKAQXEFIXXLIKGGPSSGAPPPS (Y-Aib-EGT-αMeF(2F)-TSD-OMeY-SI-αMeL-LD-Orn-K((2-[2-(2-Amino-ethoxy)-ethoxy]-acetyl)2-(γ-Glu)-(10-(4-carboxyphenoxy)decanoyl))AQ-Aib-EFI-(D-Glu)-αMeY-LIK((2-[2-(2-Amino-ethoxy)-ethoxy]-acetyl)2-(γ-Glu)-(10-(4-carboxyphenoxy)decanoyl))GGPSSGAPPPS-NH2) [Example 278] | 1.41 | – | 27 | > 9950 | –
YXEGTXTSDXSIXLDXKAQXKFIXXLIEGGPSSGAPPPS (Y-Aib-EGT-αMeF(2F)-TSD-OMeY-SI-αMeL-LD-Orn-K((2-[2-(2-Amino-ethoxy)-ethoxy]-acetyl)2-(γ-Glu)-(10-(4-carboxyphenoxy)decanoyl))AQ-Aib-K((2-[2-(2-Amino-ethoxy)-ethoxy]-acetyl)2-(γ-Glu)-(10-(4-carboxyphenoxy)decanoyl))FI-(D-Glu)-αMeY-LIEGGPSSGAPPPS-NH2) [Example 277] | 0.962 | – | 12.2 | > 9950 | –
YXEGTXTSDXSIXLDXIAQXEFIKXLIKGGPSSGAPPPS (Y-Aib-EGT-αMeF(2F)-TSD-hTyr-SI-αMeL-LD-Orn-IAQ-Aib-EFIK((2-[2-(2-Amino-ethoxy)-ethoxy]-acetyl)2-(γ-Glu)-(10-(4-carboxyphenoxy)decanoyl))-αMeY-LIK((2-[2-(2-Amino-ethoxy)-ethoxy]-acetyl)2-(γ-Glu)-(10-(4-carboxyphenoxy)decanoyl))GGPSSGAPPPS-NH2) [Example 310] | 2.4 | 83.9 | 22 | > 9950 | –
YXEGTXTSDXSIXLDXKAQXKFIXXLIEGGPSSGAPPPS (Y-Aib-EGT-αMeF(2F)-TSD-OMeY-SI-αMeL-LD-Orn-K((2-[2-(2-Amino-ethoxy)-ethoxy]-acetyl)2-(γ-Glu)-CO-(CH2)10-CH3)AQ-Aib-K((2-[2-(2-Amino-ethoxy)-ethoxy]-acetyl)2-(γ-Glu)-CO-(CH2)10-CH3)FI-(D-Glu)-αMeY-LIEGGPSSGAPPPS-NH2) [Example 289] | 3.11 | – | 627 | > 9950 | 170
YXEGTXTSDXSIXLDXIAQXEFIKXLIKGGPSSGAPPPS (Y-Aib-EGT-αMeF(2F)-TSD-2Nal-SI-αMeL-LD-Orn-IAQ-Aib-EFIK((2-[2-(2-Amino-ethoxy)-ethoxy]-acetyl)2-(γ-Glu)-(10-(4-carboxyphenoxy)decanoyl))-αMeY-LIK((2-[2-(2-Amino-ethoxy)-ethoxy]-acetyl)2-(γ-Glu)-(10-(4-carboxyphenoxy)decanoyl))GGPSSGAPPPS-NH2) [Example 283] | 4.88 | – | 49.5 | > 9950 | –
YXEGTXTSDYXIXLDXIAQXEFIKXLIKGGPSSGAPPPS (Y-Aib-EGT-αMeF(2F)-TSDY-Aib-I-αMeL-LD-Orn-IAQ-Aib-EFIK(2-[2-(2-Amino-ethoxy)-ethoxy]-acetyl)2-(γ-Glu)-(11-(4-carboxyphenoxy)undecanoyl)-αMeY-LIK((2-[2-(2-Amino-ethoxy)-ethoxy]-acetyl)2-(γ-Glu)-(11-(4-carboxyphenoxy)undecanoyl)GGPSSGAPPPS-NH2)) [Example 312] | 4.48 | 89.5 | 50.8 | > 9950 | –
YXEGTXTSDXSIXLDXIAQXEFIKXLIKGGPSSGAPPPS (Y-Aib-EGT-αMeF(2F)-TSD-4Pa1-SI-αMeL-LD-Orn-IAQ-Aib-EFIK((2-[2-(2-Amino-ethoxy)-ethoxy]-acetyl)2-(γ-Glu)-(10-(4-carboxyphenoxy)decanoyl))-αMeY-LIK((2-[2-(2-Amino-ethoxy)-ethoxy]-acetyl)2-(γ-Glu)-(10-(4-carboxyphenoxy)decanoyl))GGPSSGAPPPS-NH2) [Example 274] | 1.16 | – | 32.9 | > 9950 | –
YXEGTXTSDXSIXLDXKAQXEFIXXLIKGGPSSGAPPPS (Y-Aib-EGT-αMeF(2F)-TSD-2Nal-SI-αMeL-LD-Orn-K((2-[2-(2-Amino-ethoxy)-ethoxy]-acetyl)2-(γ-Glu)-(10-(4-carboxyphenoxy)decanoyl))AQ-Aib-EFI-(D-Glu)-αMeY-LIK((2-[2-(2-Amino-ethoxy)-ethoxy]-acetyl)2-(γ-Glu)-(10-(4-carboxyphenoxy)decanoyl))GGPSSGAPPPS-NH2) [Example 282] | 1.44 | – | 31.8 | > 9950 | –
YXEGTXTSDYXIXLDXIAQXEFIKXLIKGGPSSGAPPPS (Y-Aib-EGT-αMeF(2F)-TSDY-αMeS-I-αMeL-LD-Orn-IAQ-Aib-EFIK((2-[2-(2-Amino-ethoxy)-ethoxy]-acetyl)2-(γ-Glu)-(10-(4-carboxyphenoxy)decanoyl))-αMeY-LIK((2-[2-(2-Amino-ethoxy)-ethoxy]-acetyl)2-(γ-Glu)-(10-(4-carboxyphenoxy)decanoyl))GGPSSGAPPPS-NH2) [Example 307] | 1.66 | 81.8 | 33 | > 9950 | –
YXEGTXTSDXSIXLDXIAQXKFIXXLIKGGPSSGAPPPS (Y-Aib-EGT-αMeF(2F)-TSD-2Nal-SI-αMeL-LD-Orn-IAQ-Aib-K((2-[2-(2-Amino-ethoxy)-ethoxy]-acetyl)2-(γ-Glu)-(10-(4-carboxyphenoxy)decanoyl))FI-(D-Glu)-αMeY-LIK((2-[2-(2-Amino-ethoxy)-ethoxy]-acetyl)2-(γ-Glu)-(10-(4-carboxyphenoxy)decanoyl))GGPSSGAPPPS-NH2) [Example 284] | 8.38 | – | 137 | > 9950 | –
YXEGTXTSDXSIXLDXIAQXEFIKXLIKGGPSSGAPPPS (Y-Aib-EGT-αMeF(2F)-TSD-4Pal-SI-αMeL-LD-Orn-IAQ-Aib-EFIK(2-[2-(2-Amino-ethoxy)-ethoxy]-acetyl)2-(γ-Glu)-(11-(4-carboxyphenoxy)undecanoyl)-αMeY-LIK((2-[2-(2-Amino-ethoxy)-ethoxy]-acetyl)2-(γ-Glu)-(11-(4-carboxyphenoxy)undecanoyl)GGPSSGAPPPS-NH2)) [Example 286] | 2.18 | – | 35 | > 9950 | 90.3
YXEGTXTSDXSIXLDXKAQXKFIXXLIEGGPSSGAPPPS (Y-Aib-EGT-αMeF(2F)-TSD-hTyr-SI-αMeL-LD-Orn-K((2-[2-(2-Amino-ethoxy)-ethoxy]-acetyl)2-CO-(CH2)12-CO2H)AQ-Aib-K((2-[2-(2-Amino-ethoxy)-ethoxy]-acetyl)2-CO-(CH2)12-CO2H)FI-(D-Glu)-αMeY-LIEGGPSSGAPPPS-NH2 …) [Example 272] | 0.561 | 81.2 | 4.72 | > 9950 | –
